For 187 sequences, IC50 results are on record in the Immune Epitope Database (IEDB).

pIC50: −log10 of the molar value.

By pIC50 is commonly meant −log10 of the IC50, conventionally taken in molar units.

Assay [1] has as its target HLA-A*02:01. Put plainly: IEDB peptide-MHC binding, cellular MHC/competitive/fluorescence; ≥ and ≤ were set here for values at or beyond the usual limits of such assays.
Assay [2] has as its target HLA-A*02:02. Put plainly: IEDB peptide-MHC binding, purified MHC/competitive/radioactivity; ≥ and ≤ were set here for values at or beyond the usual limits of such assays. To be noted: source organism: Hepatitis B virus.
For assay [3], the target named is HLA-A*02:01. Described as above.
Assay [4] concerns the target HLA-A*02:03. The description is as above. To be noted: source organism: Hepatitis B virus.
The mark [5] stands for this setting: source organism: Vaccinia virus WR.
[6] abbreviates: source organism: Mammarenavirus whitewaterense.

The sequence AAASSTHRKV had a pIC50 in assay [1] (setting [5]) not above 4.15.
Still for that read-out and setting: to AAITDAAVA belongs 4.73.
Consider AAITDAAVAV, for which, in assay [1] (setting [5]), the pIC50 was 5.27.
On the same count and under the same terms, the figure for AASKQQMLM is not above 4.15; for AASPMLYQLL it is 4.80; for AASSTHRKVA it is not above 4.15.
Take AIDFGNGADL: the negative-log IC50 (pIC50) in assay [1] (setting [5]) was 4.33.
Still for that read-out and setting: the figure for AIFTDASTVA is 4.73; for AIIRQRNDEI it is 4.76; for AIKCEGLDV it is 4.87.
Same read-out and setting: to AIMFKDDNI belongs 5.01; to AIMFKDDNII, 4.36.
Regarding AINIALIAV, in assay [1] (source organism: Mammarenavirus brazilense), the pIC50 was 5.08.
Sequence ALNISSTKT gave a pIC50 in assay [1] (setting [5]) of 4.68.
Same read-out and setting: the figure for ALSDACKKIL is 4.75.
Still for that read-out and setting: to AQSKSSLLHA belongs 4.48; to ATDPDADAI, 4.41; to ATDPDADAIA, not above 4.15.
Still for that read-out and setting: the figure for ATESDAIRT is 4.97.
ATLGPANRI showed a pIC50 in assay [1] (setting [5]) of 4.77.
ATVMNNLSEL showed a pIC50 in assay [1] (setting [5]) of 4.96.
ATYHIIIVA showed a pIC50 in assay [1] (setting [5]) of 5.19.
The same measure, in the same setting: to AVAVAAASST belongs 4.29; to AVCNLASVA, 4.75.
The same measure, in the same setting: the figure for AVEHIPTMKI is 4.84; for AVNEEWLTA it is 4.76; for CIEYVTLNA it is 4.95.
In turn, CIKSHSVSLV showed a pIC50 in assay [1] (setting [5]) not above 4.15.
CIRISMVISL had a pIC50 in assay [1] (setting [5]) of 5.21.
For CISQHQHLAI, in assay [1] (setting [5]), the pIC50 is 4.96.
On the same count and under the same terms, the figure for CMSANEAAIT is 5.17; for CTVPTMNNA it is 4.79.
The same measure, in the same setting: the figure for CVDNHLGAT is 4.28; for CVVYPGNGFV it is 4.60; for DAAVAVAAA it is 5.28.
Same read-out and setting: the figure for DACKKILSA is 4.84; for DAFSREYSM it is 5.12; for DAFSREYSMT it is not above 4.15.
Turning to DALAKNASEL, in assay [1] (setting [5]), the pIC50 was 4.21.
Still for that read-out and setting: the figure for DANVVSSST is 5.12.
Take DANVVSSSTI: in assay [1] (setting [5]), the pIC50 was not above 4.15.
Same read-out and setting: to DASLMDMIT belongs 4.98; to DAYNIADAA, not above 4.15.
Same read-out and setting: the figure for DIDEILGIA is not above 4.15.
The same measure, in the same setting: the figure for DIEPDLENNL is 4.26; for DIGTVKDGRL it is not above 4.15; for DIIDFLEGAL it is 4.63.
DILANRDST gave a pIC50 in assay [1] (setting [5]) not above 4.15.
On the same count and under the same terms, to DILANRDSTL belongs 4.46; to DINSDNSNI, 4.60.
The same measure, in the same setting: the figure for DIPVNNNIVL is not above 4.15; for DIRTLLPIL it is 4.42; for DIRTLLPILL it is 4.30.
Same read-out and setting: to DISMSLYKDL belongs 5.01.
DIVGLDLENL gave a pIC50 in assay [1] (setting [5]) of 4.78.
Still for that read-out and setting: to DIVSKLTFL belongs 5.11.
On the same count and under the same terms, to DIYYNGNKML belongs 4.71.
Same read-out and setting: the figure for DLAFLIKFIT is 5.20; for DLEKYFYGEI it is not above 4.15; for DLENLYAVT it is 5.18.
In assay [1] (setting [5]), DLENNLVKL showed a pIC50 of 4.79.
On the same count and under the same terms, the figure for DLFPKQTIQT is 4.89; for DLSKLSKDV it is 5.20; for DLSKLSKDVV it is not above 4.15.
Same read-out and setting: the figure for DLVKSYSLI is not above 4.15; for DLVVLGKVT it is 4.27; for DLVVLGKVTI it is 4.96.
Still for that read-out and setting: to DLYNGGRIDM belongs 4.53; to DMIHNVIDDV, 4.70; to DMLNIMNKL, 5.29.
For the sequence DMLVNRMQRI, the pIC50 in assay [1] (setting [5]) was 4.93.
On the same count and under the same terms, to DMPSLSNGL belongs 4.33; to DMPSLSNGLI, 4.37.
In turn, DQSIKIGDI had a pIC50 in assay [1] (setting [5]) not above 4.15.
On the same count and under the same terms, to DQYKFHKLL belongs 4.80; to DTFVSSVREV, 5.29.
Same read-out and setting: to DTQQHPIVV belongs 4.86; to DTQQHPIVVL, not above 4.15.
Still for that read-out and setting: to DTSCDFESVT belongs not above 4.15.
For the sequence DVEDLLSYYV, in assay [1] (setting [5]), the pIC50 was 5.29.
As for DVELFIKAL, the pIC50 in assay [1] (setting [5]) is not above 4.15.
In assay [1] (setting [5]), DVGYEVIGA showed a pIC50 of 4.49.
Same read-out and setting: the figure for DVTAKSSFV is 5.07; for EAAITDAAVA it is 4.58; for EATYHIIIV it is 4.96.
On the same count and under the same terms, the figure for EAVKDKNWT is 4.41; for EAVKDKNWTV it is 4.83.
For the sequence EIEEHMRQT, the pIC50 in assay [1] (setting [5]) was 4.41.
Same read-out and setting: the figure for EIFIRYGDA is 4.52.
On the same count and under the same terms, the figure for EILTVKRPLL is not above 4.15; for EINATDIII it is 4.77.
Same read-out and setting: the figure for EINNELELV is 5.08.
EIPTRTLDT: the pIC50 in assay [1] (setting [5]) was 5.22.
On the same count and under the same terms, the figure for EIPTRTLDTA is 4.23; for EIRDQYITA it is not above 4.15; for EITELVVEYM it is 4.45.
As to ELDTLAAEI, the pIC50 in assay [1] (setting [5]) was 5.02.
On the same count and under the same terms, to ELEEMVDKGT belongs not above 4.15.
On the same count and under the same terms, to ELEPSLATFI belongs 4.95.
Same read-out and setting: to ELFIKALSDA belongs 4.96; to ELIAFSSGT, 5.27; to ELKTQSPDVL, 4.21.
For GLSPTVWLSV, the figures for the negative-log IC50 (pIC50) in assay [2] and in assay [3] (source organism: Hepatitis B virus) were 7.64 and 7.54, respectively.
Take SILSPFLPLL: the pIC50 in assay [4] is 7.80.
Turning to SLNFLGGTTV, the pIC50 in assay [4] was 9.17.
Turning to YILHSDYQL, the pIC50 in assay [3] (setting [5]) is 7.89.
Same read-out and setting: the figure for YILRGLLEA is 8.60; for YINTHNEVGI it is 5.78; for YISELYNKPL it is 6.20.
Still for that read-out and setting: the figure for YITALNHLV is 9.15; for YITALNHLVL it is 6.55; for YIYYFFIRL it is 8.06.
On the same count and under the same terms, to YLAIPDLYGI belongs 8.09; to YLCTFMIIT, 7.06.
As to YLDDHRYLFI, in assay [3] (setting [5]), the pIC50 was 7.92.
Same read-out and setting: the figure for YLDFLLLLL is 9.37.
Same read-out and setting: to YLDFLLLLLI belongs 7.74.
On the same count and under the same terms, the figure for YLDGQLARL is 8.89; for YLFDYPHFEA it is 10.07.
Regarding YLFGGFSTL, the pIC50 in assay [3] (setting [5]) is 9.06.
For the sequence YLFNAIETM, the pIC50 in assay [3] (setting [5]) was 8.82.
The same measure, in the same setting: the figure for YLFRIVSTV is 8.92; for YLFTFTIYT it is 8.48.
Still for that read-out and setting: to YLGMFNPYSL belongs 9.80.
On the same count and under the same terms, the figure for YLIHDNIMYT is 8.89; for YLIKLIEPV it is 8.10.
In the case of YLISIFLHLV, the pIC50 in assay [3] (source organism: Mammarenavirus choriomeningitidis) was 8.24.
Take YLKEYIPKA: in assay [3] (setting [5]), the pIC50 is 8.77.
As to YLKIGTLLV, the pIC50 in assay [3] (setting [5]) is 7.77.
On the same count and under the same terms, to YLLAVCGCI belongs 7.89; to YLLCCNYKL, 9.44.
With YLLDDVLYT, the pIC50 in assay [3] (setting [5]) was 8.89.
Same read-out and setting: to YLLDRGADI belongs 8.07; to YLLFGIKCI, 7.57; to YLLPGFVLT, 8.24.
Same read-out and setting: to YLLSGSDLFI belongs 9.60; to YLLSLFSTLV, 9.49; to YLMDEEVPA, 7.89.
Same read-out and setting: to YLMPYSVYI belongs 9.59; to YLNTNKLFFA, 8.00; to YLPKQPEGV, 8.92.
Regarding YLPKQPEGVI, the pIC50 in assay [3] (setting [5]) was 6.55.
The same measure, in the same setting: to YLPLSVFII belongs 8.21; to YLSAKITTL, 8.26; to YLSSWTPVV, 9.48.
Same read-out and setting: to YLTAIQDFI belongs 8.72; to YLTVSFIDET, 5.32; to YLVDVETIGV, 9.77.
Same read-out and setting: the figure for YLVIYLNRT is 6.09.
With YLVNAIIDSA, the pIC50 in assay [3] (setting [5]) is 6.87.
In the case of YLVPNVIGGV, in assay [3] (setting [5]), the pIC50 was 9.21.
The same measure, in the same setting: to YLVSSLSEI belongs 8.19; to YLYALYSPL, 9.89.
Still for that read-out and setting: the figure for YLYETYHLI is 8.62; for YLYQPCDLL it is 8.74; for YMATTILEMV it is 8.82.
For YMDLSYHGV, in assay [3] (setting [5]), the pIC50 was 8.96.
As for YMDLSYHGVT, the pIC50 in assay [3] (setting [5]) is 7.07.
On the same count and under the same terms, to YMFFVIKNL belongs 7.68.
Same read-out and setting: to YMMGIEYGL belongs 9.92.
Still for that read-out and setting: the figure for YMNYYTTYI is 8.96; for YMSFWCKSI it is 7.59.
As for YQDSDVSQEV, the pIC50 in assay [3] (setting [5]) was 7.92.
On the same count and under the same terms, the figure for YQLAGYILT is 7.80; for YQLFSDAKA it is 5.75; for YQMLLALVAL it is 8.82.
As for YQYIFLSFFA, in assay [3] (setting [5]), the pIC50 is 7.72.
For the sequence YQYVRLHEM, the pIC50 in assay [3] (setting [5]) was 8.04.
Regarding YTALHYYYL, in assay [3] (setting [5]), the negative-log IC50 (pIC50) is 7.77.
Same read-out and setting: to YTDEVYDYL belongs 7.68.
The same measure, in the same setting: the figure for YTDSIQDLL is 6.03; for YTIERIFNA it is 9.25.
YTINCLLYI: in assay [3] (setting [5]), the pIC50 was 8.29.
The same measure, in the same setting: the figure for YTQDELINV is 8.14; for YTYAFTKKV it is 7.80.
Still for that read-out and setting: to YTYFSNTILL belongs 6.72; to YTYLIGEKI, 5.30.
On the same count and under the same terms, to YVHGDTYSL belongs 7.15; to YVKTLLISM, 5.72; to YVLFTVMTYV, 9.00.
In the case of YVLLHLLVV, the pIC50 in assay [3] (setting [5]) was 7.00.
Same read-out and setting: the figure for YVMTMILFL is 10.19.
As for YVNHTGFNV, the negative-log IC50 (pIC50) in assay [3] (setting [6]) was 6.32.
As for YVPGYSITT, the pIC50 in assay [3] (setting [5]) is 6.88.
With YVSSIFLHL, the pIC50 in assay [3] (setting [6]) is 6.80.
As to YVSTGESSIL, the pIC50 in assay [3] (setting [5]) was 5.87.
Same read-out and setting: to YVTKKNNNI belongs 6.30.
